Test results from patent publication US20210292396A1 (INTERNATIONAL AIDS VACCINE INITIATIVE, published 2021).

Assays:
Test in all cases: cell-based or functional assay
[1] = target: HIV Env of isolate Ce0393_C3 (HIV)
[2] = target: HIV Env of isolate WEAU_d15_410_5017 (HIV)
[3] = target: HIV Env of isolate Du172.17 (HIV)
[4] = target: HIV Env of isolate Du422.1 (HIV)
[5] = target: HIV Env of isolate HIV-0013095-2.11 (HIV)
[6] = target: HIV Env of isolate T251-18 (HIV)
[7] = target: HIV Env of isolate 6244_13_B5_4576 (HIV)
[8] = target: HIV Env of isolate Ce2010_F5 (HIV)
[9] = target: HIV Env of isolate 6480.v4.c25 (HIV)
[10] = target: HIV Env of isolate ZM249M.PL1 (HIV)
[11] = target: HIV Env of isolate 249M_B10 (HIV)
[12] = target: HIV Env of isolate CNE20 (HIV)
[13] = target: HIV Env of isolate CNE30 (HIV)
[14] = target: HIV Env of isolate Ce2060_G9 (HIV)
[15] = target: HIV Env of isolate ZM233M.PB6 (HIV)
[16] = target: HIV Env of isolate REJO4541.67 (HIV)
[17] = target: HIV Env of isolate 928-28 (HIV)
[18] = target: HIV Env of isolate 6545.v4.c1 (HIV)
[19] = target: HIV Env of isolate 89-F1_2_25 (HIV)
[20] = target: HIV Env of isolate 246F_C1G (HIV)
[21] = target: HIV Env of isolate MS208.A1 (HIV)
[22] = target: HIV Env of isolate BJOX010000.06.2 (HIV)
[23] = target: HIV Env of isolate 235-47 (HIV)
[24] = target: HIV Env of isolate AC10.0.29 (HIV)
[25] = target: HIV Env of isolate X2088_c9 (HIV)
[26] = target: HIV Env of isolate 1006_11_C3_1601 (HIV)
[27] = target: HIV Env of isolate 6244_13_B5_4576 (HIV); remark: listed apart in the source
[28] = target: HIV Env of isolate CAAN5342.A2 (HIV)
[29] = target: HIV Env of isolate ZM135M.PL10a (HIV)
[30] = target: HIV Env of isolate SC05_8C11_2344 (HIV)
[31] = target: HIV Env of isolate CNE17 (HIV)
[32] = target: HIV Env of isolate 6240_08_TA5_4622 (HIV)
[33] = target: HIV Env of isolate Du156.12 (HIV)
[34] = target: HIV Env of isolate Ce1176_A3 (HIV)
[35] = target: HIV Env of isolate HIV-16845-2.22 (HIV)
[36] = target: HIV Env of isolate CAP210.2.00.E8 (HIV)
[37] = target: HIV Env of isolate CNE21 (HIV)
[38] = target: HIV Env of isolate 0815.v3.c3 (HIV)
[39] = target: HIV Env of isolate CNE58 (HIV)
[40] = target: HIV Env of isolate T211-9 (HIV)
[41] = target: HIV Env of isolate 6952.v1.c20 (HIV)
[42] = target: HIV Env of isolate 1054_07_TC4_1499 (HIV)
[43] = target: HIV Env of isolate BJOX009000.02.4 (HIV)
[44] = target: HIV Env of isolate T250-4 (HIV)
[45] = target: HIV Env of isolate 0330.v4.c3 (HIV)

B1: PGT-121 (antibody, V domains shown)
VH: QMQLQESGPGLVKPSETLSLTCSVSGASISDSYWSWIRRSPGKGLEWIGYVHKSGDTNYSPSLKSRVNLSLDTSKNQVSLSLVAATAADSGKYYCARTLHGRRIYGIVAFNEWFTYFYMDVWGNGTQVTVSS
VL: SDISVAPGETARISCGEKSLGSRAVQWYQHRAGQAPSLIIYNNQDRPSGIPERFSGSPDSPFGTTATLTITSVEAGDEADYYCHIWDSRVPTKWVFGGGTTLTVLG
neutralization IC50 [1]: > 50 µg/mL
neutralization IC50 [2]: 0.026 µg/mL
neutralization IC50 [3]: 0.033 µg/mL
neutralization IC50 [4]: 0.039 µg/mL
neutralization IC50 [5]: > 50 µg/mL
neutralization IC50 [6]: 29 µg/mL
neutralization IC50 [7]: 0.061 µg/mL
neutralization IC50 [8]: > 50 µg/mL
neutralization IC50 [9]: 0.001 µg/mL
neutralization IC50 [10]: > 50 µg/mL
neutralization IC50 [11]: > 50 µg/mL
neutralization IC50 [12]: 0.001 µg/mL
neutralization IC50 [13]: > 50 µg/mL
neutralization IC50 [14]: > 50 µg/mL
neutralization IC50 [15]: 3.69 µg/mL
neutralization IC50 [16]: 4.77 µg/mL
neutralization IC50 [17]: 44.2 µg/mL
neutralization IC50 [18]: > 50 µg/mL
neutralization IC50 [19]: > 50 µg/mL
neutralization IC50 [20]: 0.041 µg/mL
neutralization IC50 [21]: > 50 µg/mL
neutralization IC50 [22]: > 50 µg/mL
neutralization (Table 6 value) [23]: 0.0457
neutralization (Table 6 value) [24]: 0.029
neutralization (Table 6 value) [25]: 0.00214
neutralization (Table 6 value) [26]: 0.00382
neutralization (Table 6 value) [27]: 0.14
neutralization (Table 6 value) [28]: 0.00872
neutralization (Table 6 value) [29]: 1.32
neutralization (Table 6 value) [30]: 0.0278
neutralization (Table 6 value) [31]: 0.225
neutralization (Table 6 value) [32]: 0.0427
neutralization (Table 6 value) [33]: 0.00534
neutralization (Table 6 value) [34]: 0.00882
neutralization (Table 6 value) [35]: 0.25
neutralization (Table 6 value) [36]: 0.618
neutralization (Table 6 value) [37]: 0.00525
neutralization (Table 6 value) [38]: 7.9e-05
neutralization (Table 6 value) [39]: 1.28
neutralization (Table 6 value) [40]: 0.891
neutralization (Table 6 value) [41]: 0.000292
neutralization (Table 6 value) [42]: 0.0334
neutralization (Table 6 value) [43]: 0.243
neutralization (Table 6 value) [44]: 0.00021
neutralization (Table 6 value) [45]: 0.0513

B2: ePGT121.15.H1.L1 (antibody, V domains shown)
VH: QMQLQESGPGLVKPGETLSLTCSVSGASISSSYWSWLRETPGKGLEWIGYTHHSGDTNYAPSLKSRVHLGLHPSKNQVSLSLTSVTAADTAVYYCARTLHGRRIYGVVAFNEWFTYFYWEVWGNGTQVTVSS
VL: SDISVAPGETVRISCGGESIGSRAVQWYQHRAGQAPKLIIYNNQDRPPGIPERFSGSPDIDFGTTATLTITNVEAGDEATYYCHIWDSRRPTNWVFGGGTTLTVL
neutralization IC50 [1]: > 50 µg/mL
neutralization IC50 [2]: 0.0001 µg/mL
neutralization IC50 [3]: 0.0002 µg/mL
neutralization IC50 [4]: 0.0007 µg/mL
neutralization IC50 [5]: 0.0001 µg/mL
neutralization IC50 [6]: 0.0055 µg/mL
neutralization IC50 [7]: 0.0037 µg/mL
neutralization IC50 [8]: > 50 µg/mL
neutralization IC50 [9]: 0.0012 µg/mL
neutralization IC50 [10]: 0.0024 µg/mL
neutralization IC50 [11]: 0.0022 µg/mL
neutralization IC50 [12]: 0.0003 µg/mL
neutralization IC50 [13]: 0.0024 µg/mL
neutralization IC50 [14]: > 50 µg/mL
neutralization IC50 [15]: 0.0124 µg/mL
neutralization IC50 [16]: 3.17 µg/mL
neutralization IC50 [17]: 0.0178 µg/mL
neutralization IC50 [18]: > 50 µg/mL
neutralization IC50 [19]: > 50 µg/mL
neutralization IC50 [20]: 0.0013 µg/mL
neutralization IC50 [21]: > 50 µg/mL
neutralization IC50 [22]: > 50 µg/mL
neutralization (Table 6 value) [23]: 0.0061
neutralization (Table 6 value) [24]: 0.00272
neutralization (Table 6 value) [25]: 0.00147
neutralization (Table 6 value) [26]: 0.00195
neutralization (Table 6 value) [27]: 0.00697
neutralization (Table 6 value) [28]: 0.00192
neutralization (Table 6 value) [29]: 0.11
neutralization (Table 6 value) [30]: 0.00762
neutralization (Table 6 value) [31]: 0.0106
neutralization (Table 6 value) [32]: 0.0052
neutralization (Table 6 value) [33]: 0.00124
neutralization (Table 6 value) [34]: 0.00282
neutralization (Table 6 value) [35]: 0.0209
neutralization (Table 6 value) [36]: 0.0229
neutralization (Table 6 value) [37]: 0.000929
neutralization (Table 6 value) [38]: 0.00167
neutralization (Table 6 value) [39]: 0.00795
neutralization (Table 6 value) [40]: 0.00532
neutralization (Table 6 value) [41]: 0.00081
neutralization (Table 6 value) [42]: 0.00167
neutralization (Table 6 value) [43]: 0.0255
neutralization (Table 6 value) [44]: 0.000854
neutralization (Table 6 value) [45]: 0.00621

B3: ePGT121.15.H6.L1 (antibody, V domains shown)
VH: QMQLQESGPGLVKPGETLSLTCSVSGASISSSYWSWLRETPGKGLEWIGYTHHSGDTNYAPSLKSRVHLGLHPSKNQVSLSLTSVTAADTAVYYCARTLHGRRIYGVVAFNEFFTYFYWEVWGKGTQVTVSS
VL: SDISVAPGETVRISCGGESIGSRAVQWYQHRAGQAPKLIIYNNQDRPPGIPERFSGSPDIDFGTTATLTITNVEAGDEATYYCHIWDSRRPTNWVFGGGTTLTVL
neutralization (Table 6 value) [23]: 0.00363
neutralization (Table 6 value) [24]: 0.00278
neutralization (Table 6 value) [25]: 0.00108
neutralization (Table 6 value) [26]: 0.00214
neutralization (Table 6 value) [27]: 0.0055
neutralization (Table 6 value) [28]: 0.00221
neutralization (Table 6 value) [29]: 0.168
neutralization (Table 6 value) [30]: 0.00473
neutralization (Table 6 value) [31]: 0.0101
neutralization (Table 6 value) [32]: 0.00465
neutralization (Table 6 value) [33]: 0.000917
neutralization (Table 6 value) [34]: 0.00302
neutralization (Table 6 value) [35]: 0.0283
neutralization (Table 6 value) [36]: 0.0311
neutralization (Table 6 value) [37]: 0.00124
neutralization (Table 6 value) [38]: 0.00022
neutralization (Table 6 value) [39]: 0.0145
neutralization (Table 6 value) [40]: 0.00751
neutralization (Table 6 value) [41]: 0.000793
neutralization (Table 6 value) [42]: 0.00129
neutralization (Table 6 value) [43]: 0.0166
neutralization (Table 6 value) [44]: 0.000789
neutralization (Table 6 value) [45]: 0.00764
